# Assay: soluble on expression in E. coli; label from the status in PepcDB or PDB records
row,Sequence,soluble on expression in E. coli
1,MSPAPELQIPTVTRQSDGTKIHEISGHKFKAVGLAQPTFCSFCSKFIYGVGKQGYKCLGCETVVHKRCHALITARCTFGPSSRAPVPAETTNLKTRRSRSASEEPPSNTHHFNKHFFTRPTFCDHCGSMLYGLTKQGVQCTDCHANVHFRCQEKVLRNCGIQCQ,not soluble
2,MGHHHHHHSHPAPAQLVQKAHELMWYVLVKDQKKMIIWFPDMVKDVIGSYKKWCRSILRRTSLILARVFGLHLRLTSLHTMEFALVKALEPEELDRVALSNRMPMTGLLLMILSLIYVKGRGARESAVWNVLRILGLRPWKKHSTFGDVRKLITEEFVQMNYLKYQRVPYVEPPEYEFFWGSRASREITKMQIMEFLARVFKKDPQA,not soluble
3,GSTDSLPGKFEDMYKLTSELLGEGAYAKVQGAVSLQNGKEYAVKIIEKQAGHSRSRVFREVETLYQCQGNKNILELIEFFEDDTRFYLVFEKLQGGSILAHIQKQKHFNEREASRVVRDVAAALDFLHTKGIAHRDLKPENILCESPEKVSPVKICDFDLGSGMKLNNSCTPITTPELTTPCGSAEYMAPEVVEVFTDQATFYDKRCDLWSLGVVLYIMLSGYPPFVGHCGADCGWDRGEVCRVCQNKLFESIQEGKYEFPDKDWAHISSEAKDLISKLLVRDAKQRLSAAQVLQHPWVQGQAPEKG,soluble
4,MGSDKIHHHHHHMQLDKIIAQNIVKRAMNIIGCSVNVMDHHGIIIASGNPARLNQLHTGAVLALRQNRMVEVDENLAEKWNFDAHPGINVPIQYLGNNIGVIGISGVPEQVKPYAELVKMTAELIIEQHILLEKESWNRRYKEEFILQLVKGNLSLAEIQQQAAFFSFALDIPRVVIIIKLLHPNADSLQQLVGYLEQPQFEQDVAILSLDQIIILQPFNIFAQFGKQLKKLLPKDYSQQDYKIAIGAQLECPAGEQLHLSYRSALSTLQYGLKHYPRKTLYFFEQYRLPVLLAGIADSWQAEELLKPLKALFSEENALLFKTLQQYFLSNCDLVLTAQKLFIHPNTLRYRLAKIEQITALSFNKIEDRFSLYLSTVLI,not soluble
5,MSLNVGYLCTYTPKELIDAAGFTPIRIFAGDMQISLATAHIQSYACSQARGSLERALRGELDVQAVVFTRCCDTLMRLADIWERNTDMRVYNIEFPTRVEERSKDYYFNELKDFVKVLEEWGGGVTLESLRESLKLYHELEEKLKRLFSLKPDYEAAKRVQEMNVREAIKFVDERLRKAESEGGKPRVLITGSVCPFVEVYTLFEEAGFALKDDICTGTRFFTFNTPPREIGSVDEGLRFLVDKYFEKAPCPTKHFPNDDRFKYILEMAKDCDGVVFLLLKFCEPHFYDYPQLKERLEEMGKKVLLLELEFPIASIEQLRTRIEAFYEVIAEGGSHHHHHH,soluble
6,MGSDKIHHHHHHMSAISYLHLLMLRQNNSMTRHNQTLFNLPLFNQHQFNPPQLNQVAIDQLQQGQAKRLSLLWLWLQQDETRLAALMVCQKVMQQQGITDWLISAGFIRNLIWDNLHSMTSQPLNDIDVIYWRDNNPSSAEDQAIEALLVKQIALPWSVKNQARMHLRNGDMPYISCADAMSFWPEKQTAIGVKLASIDDLTSAEFQLQVTSVFGLSCLFDLSLSPNPKRDKAIFNHRVSQKGWLIHYSKLLVTE,not soluble
7,MTKNDNTIFKDIYQLWFTQYKQTVKESTWVTTQRLFRLHILPIFSDYRIAKISIKDCQKAINQWFNAGLAKYHTLMNYVAKVLDYAINIDLISENPAKRVIVPVNKNDRSLEHHHHHH,soluble
8,MSLRETIKVGEKAPAFTVAALNGVDSISLSDYKGKIVIVHLWSPTCPHCRETNKVLPGIIGPYSKKANLAYIMIAIDMDTLTLRPVIEEDKLNFAIHGYDPFDGSAKTMMDYEAPGTPCINIVDEKGNLVGVNVTDDQLKKYLKKRFSRNSEGHHHHHH,not soluble
9,MSLVKAISSNLGYPRLGEKREWKRALEKFWNGAISEEELLAETKALRLHALKKQQEKGIDLIPVGDFSFYDQVLDTSVTFGIIPKRFQHDGGKVSLNTYFDIARGKSDAVASEMTKWFNTNYHYIVPELADADPKVLDNRALYYYEEAKKELGIEGKPVLVGPVTYLKLGKGNDAENFEALLDKFIPAYVEILKELERAGAKWVQIDEPYLATSFDKSEIKLFEKVYQAFQTAVPNLKIELQTYFESLDYYEEVVNLPVAAIGIDFVHDHGDSLEALKAHGFPEDKYLAAGVIDGRNVWRSDLDAKLSLLTEIADYVTDGKLIVQPSNSLLHVPVTKLSEPDLDEVILGGLSFADQKLDEIAILTKALTDGAESVTAELEDARAAVTALNESSHRNNLEVQEAIANLGNVRVDRELPFAERIKLQHAWLNLPLFPTTTIGSFPQSPEVRKTRADWLKGNITDAEYNAFIEKETARWIKIQEELDIDVLVHGEFERTDMVEYFGQKLAGFQATKFGWVQSYGSRAVRPPLIYGDVAFTEEITVKESVYAQSLTKRPVKGMLTAPVTIINWSFVRDDVPESVVANQVGLALRKEVEALERNGIKVIQVDEPALREGLPLKQARWEKYLNDAVYSFKLTTASVQNDTQIHTHMCYSDFDDIIDTISALDADVISIETSRSHGEIISTFEEVTYDKEIGLGVYDIHSPRVPTVTEIQDNIRRALRAIDAKQFWINPDCGLKTRKEPETIAALQDMIKATKEVRAEYQVLEKEGHHHHHH,soluble
10,MRKYKLGIYEKALPKNISWQDRLSIAKSCGFDFVEMSIDETDERLARLEWSKEQRLALVNSIVTTGITIPSMCLSGHRRFPFGTRDQATREKAYEIMEKAIQFAVDTGIRTIQLAGYDVYYEEQDQGTIERFQQGLAWAVELAASNQVTLAVEIMDTPFMSSISRWKKWDEMINSPWFTVYPDIGNLSAWNDNIEQELALGINKISAIHLKDTYKITKDCAGQFRDVPFGDGCVDFKGFFEILAKLNYRGAFLIEMWTEKAEEPIAEIINARRWIEQKMKEGGFEC,not soluble
11,IQTTAPPVKESSFVEKMKKTGRNIIVFYGSQTGTAEEFANRLSKDAHRYGMRGMSADPEEYDLADLSSLPEIDKSLVVFCMATYGEGDPTDNAQDFYDWLQETDVDLTGVKFAVFGLGNKTYEHFNAMGKYVDQRLEQLGAQRIFELGLGDDDGNLEEDFITWREQFWPAVCEFFGVEATGEESSIRQYELVVHEDMDVAKVYTGEMGRLKSYENQKPPFDAKNPFLAAVTANRKLNQGTERHLMHLELDISDSKIRYESGDHVAVYPANDSALVNQIGEILGADLDVIMSLNNLDEESNKKHPFPCPTTYRTALTYYLDITNPPRTNVLYELAQYASEPSEQEHLHKMASSSGEGKELYLSWVVEARRHILAILQDYPSLRPPIDHLCELLPRLQARYYSIASSSKVHPNSVHICAVAVEYEAKSGRVNKGVATSWLRAKEPAGENGGRALVPMFVRKSQFRLPFKSTTPVIMVGPGTGIAPFMGFIQERAWLREQGKEVGETLLYYGCRRSDEDYLYREELARFHKDGALTQLNVAFSREQAHKVYVQHLLKRDREHLWKLIHEGGAHIYVCGDARNMAKDVQNTFYDIVAEFGPMEHTQAVDYVKKLMTKGRYSLDVGS,soluble
12,MINETKYMRQQITNLIQIIDTIKYNTLMTDWNIQTHIYKFNQIVTNELNKFKGFETSYIINENQVSYYEIITLLNKRPLRQVDYGNKIQYLNFYHTELSNALFAIKFAHLEHHHHHH,not soluble
13,MNHMEILSFPAGPYQTNCYVVLSEESEGRRYASVIDPGLRAKELIDQYCEENRVEVVQVLLTHGHIDHCRDAAALANGWGVALQIHRYDEFFLDKGNGMSEDSRLLFHADAMNLPDSVSYLGDGDEVELGGQRFVVRHAPGHSPGCVLFVGKDFCFSGDVLFKGSIGRTDLAHSDPHAMSNSIKSVVLGLEDSLTILPGHGPATTMRAEKASNPYLRV,not soluble
14,MNTRSSLSEEQREQLVGLCEQDLDFTTTASRIGGRHTLARSLYHCWLLHGRLCLVEKPTKKHYSFEIKKEVVDRFLAGETRMNLAKEFKLSSPQQVKDWVSKWHKRR,not soluble
15,GPGPAIGEVIGISVNDPRVKEIAEFALKQHAEQNLILAGVDAGQIIKGIPHWDNYYNLILSAKHSPHEFSKFYNVVVLEKASDNSLKLVAFVPLF,soluble
16,MDKLKVAELFAGVGGFRLGLENTKEKIFDVTWANQWEPSKKIQHAFDCYNSRFITGEHVNKDIALISDEEIANTKADMVVGGFPCQDYSVARSLSGELGIQGKKGVLFWQIIRFIQNTYPKYLLLENVDRLLKSPSSQRGRDFGVMLSTLNELGYNVEWRVINAADYGNAQRRRRVFIFGYKQDLEHHHHHH,soluble
17,MASEKPLAAVTCTAPVNIAVIKYWGKRDEELVLPINSSLSVTLHQDQLKTTTTAVISKDFTEDRIWLNGREEDVGQPRLQACLREIRCLARKRRNSRDGDPLPSSLSCKVHVASVNNFPTAAGLASSAAGYACLAYTLARVYGVESDLSEVARRGSGSACRSLYGGFVEWQMGEQADGKDSIARQVAPESHWPELRVLILVVSAEKKLTGSTVGMRASVETSPLLRFRAESVVPARMAEMARCIRERDFPSFAQLTMKDSNQFHATCLDTFPPISYLNAISWRIIHLVHRFNAHHGDTKVAYTFDAGPNAVIFTLDDTVAEFVAAVWHGFPPGSNGDTFLKGLQVRPAPLSAELQAALAMEPTPGGVKYIIVTQVGPGPQILDDPCAHLLGPDGLPKPAA,soluble
18,AIARGPEPGPQPTMEGDVLDTLEALGYKGPLLEEQALTKAAEGGLSSPEFSELCIWLGSQIKSLCNLEESITSAGRDDLESFQLEISGFLKEMACPYSVLISGDIKDRLKKKEDCLKLLLFLSTELQASQILQNKKHKNSQLDKNSEVYQEVQAMFDTLGIPKSTTSDIPHMLNQVESKVKDILSKVQKNHVGKPLLKMDLNSEQAEQLERINDALSCEYECRRRMLMKRLDVTVQSFGWSDRAKVKTDDIARIYQPKRYALSPKTTITMAHLLAAREDLSKIIRTSSGTSREKTACAINKVGVSFSTVENELMISYLMFLQILVYFSFMSW,soluble
19,MGSDKIHHHHHHMSFSLRNYQVELILDIKKSMLAGHRKIMVQSPPRSGKTVCMAHIAKNATNKQKTVLFFSHRKEINEQVFETFSRAGVDMGLVYIGTVGSIVRKLGKLPVPTLVLVDEAHHIKASQYQQILKYYHQAVQLFFTGTPIRLDGSGFDDMADDLVVGKSILWLQEHGNISEFDYYSINLLDQAKLRKRQGEYTNQSIDDSFDFSNSTAIT,not soluble
20,MAHHHHHHSLSDLKIARIDVFQVDLPYSGGVYYLSAGREYRSFDATIVRITTDTGIEGWGESTPFGSNYIASHPRGVRAGIATMAPSLIGLDPRRVDRINDAMDDALLGHEDAKTAIDVACWDIFGKSVGLPVCELLGGRTNTRLPLISSIYVGEPEDMRARVAKYRAKGYKGQSVKISGEPVTDAKRITAALANQQPDEFFIVDANGKLSVETALRLLRLLPHGLDFALEAPCATWRECISLRRKTDIPIIYDELATNEMSIVKILADDAAEGIDLKISKAGGLTRGRRQRDICLAAGYSVSVQETCGSDIAFAAIVHLAQTIPERSLRCILECRDMVTVKTADGAFDIQDGFATAPTTPGLGIMPRLDVLGEAVASYF,soluble
21,MNPNFLDFEQPIADLQAKIEELRLVGNDNALNISDEISRLQDKSKALTENIFGNLSSWQIAQLARHPKRPYTLDYIGYLFSDFEELHGDRHFADDPAIVGGVARLDGSPVMVIGHQKGREVREKVRRNFGMPRPEGYRKACRLMEMAERFKMPILTFIDTPGAYPGIDAEERGQSEAIAWNLRVMARLKTPIIATVIGEGGSGGALAIGVCDQLNMLQYSTYSVISPEGCASILWKTAEKAPEAAEAMGITAERLKGLGIVDKVIDEPLGGAHRDPASMAESIRGELLAQLKMLQGLEMGELLERRYDRLMSYGAP,not soluble

# From the DeepSol protein solubility set
